Reference: patent publication KR20200098329A (dated 2020)
Positions count from the first letter of the chain named.

B1: 3G8 항체 (antibody, V domains shown)
VH: QIQLVQSGPELKKPGETVKISCKASGYSFTKYGMNWVKQAPGKDIKWMGWINTNTGEATYGEEVKGRFAFSLETSASTAYLQINNLKNEDTATYFCARLGLRYLDYWGQGTTLTVSS
VL: DIVMTQSPASLVVSLGQRATISCRASKSVSTSDYSYMHWYQQKPGQPPKVLIYLASNLESGVPARFSGSGSGTDFTLNIHPVEEEDAATYYCQHNRELPPTFGAGTKLELK
notes: Mouse monoclonal antibody from a hybridoma; Biotinylated when used as detecting antibody in the sandwich ELISA; also called 항-BAG2 항체 3G8
B2: 2A11 항체 (antibody, V domains shown)
VH: QVQLQQPGAELVRPGASVTLSCKASGYTFTDYEMHWVKQTPVHGLEWIGIIDPETGGTAYNQKFKGKATLTADKSSSTAYMELRSLTSEDSAVYYCTRGKFYYSGRDYAMDYWGQGTSVTVSS
VL: DVLMTQTPLSLPVSLGDQASISCRSSQSIVHSNGNTYLEWYLQKPGQSPKLLIYKVSNRFSGVPDRFSGSGSGTDFTLKISRVEAEDLGVYFCFQGSQVPPTFGGGTKLEIK
notes: Mouse monoclonal antibody from a hybridoma; also called 항-BAG2 항체 2A11
B3: 8C4 항체 (antibody, V domains shown)
VH: B2 VH with G56A
VL: B2 VL with I53F
notes: Mouse monoclonal antibody from a hybridoma; also called 항-BAG2 항체 8C4
B4: 4C2 항체 (antibody, V domains shown)
VH: B2 VH with G57A
VL: B2 VL with I53F
notes: Mouse monoclonal antibody from a hybridoma; also called 항-BAG2 항체 4C2
B5: 3F12 항체 (antibody, V domains shown)
VH: QVQLQESGPDLVKPSQSLSLTCTVTGYSITSGYSWHWIRQFPGNKLEWMGYIYYRGSTNYNPSLKSRISITRDTSKNQFFLLLKSVTTEDTATYYCAREAYWGQGTLVTVSA
VL: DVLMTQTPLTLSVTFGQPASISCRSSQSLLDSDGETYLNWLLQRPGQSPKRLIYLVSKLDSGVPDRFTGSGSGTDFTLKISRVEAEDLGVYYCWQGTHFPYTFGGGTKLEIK
notes: Mouse monoclonal antibody from a hybridoma; Biotinylated when used as detecting antibody in the sandwich ELISA; also called 항-BAG2 항체 3F12

What follows are binders tested against T1, GST-Bag Full (GST와 융합된 전장 BAG2 폴리펩티드) (human, UniProt O95816 1-211) (assay: immunoblot on lysate of HEK293T cells with the GST-Bag Full vector, signal at about 50 kDa).
T1 construct: Expressed in HEK293T cells, detected in lysate at about 50 kDa by immunoblot; not shown: GST tag, about 26 kDa, of the pcDNA3.1+/GST vector (NovoPro Bioscience)
T1 sequence (O95816 whole entry): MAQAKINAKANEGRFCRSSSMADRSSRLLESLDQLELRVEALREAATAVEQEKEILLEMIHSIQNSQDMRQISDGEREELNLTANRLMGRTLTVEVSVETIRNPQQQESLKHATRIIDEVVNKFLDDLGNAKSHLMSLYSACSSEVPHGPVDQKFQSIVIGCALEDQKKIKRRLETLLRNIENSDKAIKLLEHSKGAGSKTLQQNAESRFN

Binding result, binds:
B1
B2
B3
B4
B5

Each binder was assayed against T2, 인간 BAG2 단백질 (human, UniProt O95816 2-211, limits assumed) (assay: immunoblot screening of hybridomas).
T2 construct: also called BAG2 폴리펩티드; human BAG2
T2 sequence (O95816 2-211 limits assumed): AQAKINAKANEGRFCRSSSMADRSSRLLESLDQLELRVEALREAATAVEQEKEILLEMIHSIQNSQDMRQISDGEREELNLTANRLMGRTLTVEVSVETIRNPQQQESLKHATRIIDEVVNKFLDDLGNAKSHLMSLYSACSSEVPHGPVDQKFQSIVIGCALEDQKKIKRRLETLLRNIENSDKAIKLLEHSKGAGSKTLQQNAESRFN

Binding result, binds:
B2
B5

The binders below were run against T2, 인간 BAG2 단백질 (assay: immunoblot on MDA-MB-231 cell lysate).

Binding result, binds:
B1
B3
B4
